In patent publication US20240317834A1, “COMPOSITIONS AND METHODS FOR NEUROLOGICAL DISEASES” (CODA BIOTHERAPEUTICS, INC., priority 2020, published 2024):
Where a chain is given by its changes, count along the chain named. Names and notes keep the numbering of the source.

Tested on: Lenti-X 293T cells
Assay: YFP fluorescence quenching anion reporter plate reader assay of engineered receptors stimulated with acetylcholine or a non-native ligand
Format: cell-based
Details: for percent quench of YFP fluorescence, 30 nM TC-6683: TC-6683 30 nM; for percent quench of YFP fluorescence, 300 nM TC-6683: TC-6683 300 nM; for percent quench of YFP fluorescence, 3 uM TC-6683: TC-6683 3 uM; for percent quench of YFP fluorescence, 30 uM TC-6683: TC-6683 30 uM; for percent quench of YFP fluorescence, 100 uM TC-6683: TC-6683 100 uM; for percent quench of YFP fluorescence, 10 uM ach: acetylcholine 10 uM; for percent quench of YFP fluorescence, 100 uM ach: acetylcholine 100 uM; for percent quench of YFP fluorescence, 1 mM ach: acetylcholine 1 mM; for percent quench of YFP fluorescence, 3 mM ach: acetylcholine 3 mM; for percent quench of YFP fluorescence, 300 uM ach: acetylcholine 300 uM; for percent quench of YFP fluorescence, 500 uM ach: acetylcholine 500 uM; for percent quench of YFP fluorescence, 10 mM ach: acetylcholine 10 mM
Outline: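 YFP quench was followed for about 1 min 43 s after ligand delivered in iodide-based ECS, pH 7.2. Values are end-of-read fluorescence (last 10 s) divided by the pre-ligand baseline (15 s). Cells were LX293T, transfected with receptor DNA a day before the assay.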

B1: CODA965: engineered chimeric LGIC receptor, Y140C in SEQ ID NO: 33 (protein)
chain: MRCSPGGVWLALAASLLHVSLQGEFQRKLYKELVKNYNPLERPVANDSQPLTVYFSLSLLQIMDVDEKNQVLTTNIWLQMSWTDHYLQWNVSEYPGVKTVRFPDGQIWKPDILLYNSADERFDATFHTNVLVNSSGHCQCLPPGIFKSSCPMDLKNFPMDVQTCKLKFGSWSYGGWSLDLQMQEADISGYIPNGEWDLVGIPGKRSERFYECCKEPYPDVTFTVTMRRRMGYYLIQMYIPSLLIVILSWISFWINMDAAPARVGLGITTVLTMTTQSSGSRASLPKVSYVKAIDIWMAVCLLFVFSALLEYAAVNFVSRQHKELLRFRRKRRHHKSPMLNLFQEDEAGEGRFNFSAYGMGPACLQAKDGISVKGANNSNTTNPPPAPSKSPEEMRKLFIQRAKKIDKISRIGFPMAFLIFNMFYWIIYKIVRREDVHNQ
modifications: synthetic sequence of chimeric LGIC
- YFP fluorescence quenching using CNL001 (1 nM CNL001, first column): −12.765%
- YFP fluorescence quenching using CNL001 (1 nM CNL001, second column): −12.608%
- YFP fluorescence quenching using TC-5619/Bradanicline (3 nM brd): −18.49%
- YFP fluorescence quenching using Varenicline (3 nM var, first column): −17.716
- YFP fluorescence quenching using Varenicline (3 nM var, second column): −23.019
- YFP fluorescence quenching using CNL001 (10 nM CNL001, first column): 68.134%
- YFP fluorescence quenching using CNL001 (10 nM CNL001, second column): 71.394%
- YFP fluorescence quenching using TC-5619/Bradanicline (30 nM brd): 22.66%
- YFP fluorescence quenching using Facinicline (30 nM fac): −12.29
- YFP fluorescence quenching using Varenicline (30 nM var, first column): −14.993
- YFP fluorescence quenching using Varenicline (30 nM var, second column): −12.182
- YFP fluorescence quenching using CNL001 (50 nM CNL001, first column): 80.298%
- YFP fluorescence quenching using CNL001 (50 nM CNL001, second column): 82.159%
- YFP fluorescence quenching using ABT-126 (50 nM abt): −10.75%
- YFP fluorescence quenching using CNL001 (100 nM CNL001, first column): 82.404%
- YFP fluorescence quenching using CNL001 (100 nM CNL001, second column): 82.14%
- YFP fluorescence quenching using CNL002 (100 nM CNL002): 43.24%
- YFP fluorescence quenching using ABT-126 (100 nM abt): −4.11%
- YFP fluorescence quenching using AZD-0328 (100 nM azd0328): −16.69%
- YFP fluorescence quenching using ABT-126 (300 nM abt): 18.93%
- YFP fluorescence quenching using AZD-0328 (300 nM azd0328): 1.3%
- YFP fluorescence quenching using TC-5619/Bradanicline (300 nM brd): 38.02%
- YFP fluorescence quenching using Facinicline (300 nM fac): 20.11
- YFP fluorescence quenching using Varenicline (300 nM var, first column): −11.731
- YFP fluorescence quenching using Varenicline (300 nM var, second column): −10.13
- YFP fluorescence quenching using Varenicline (500 nM var, first column): −12.518
- YFP fluorescence quenching using Varenicline (500 nM var, second column): −15.043
- YFP fluorescence quenching using CNL001 (1 uM CNL001, first column): 82.34%
- YFP fluorescence quenching using CNL001 (1 uM CNL001, second column): 80.649%
- YFP fluorescence quenching using CNL002 (1 uM CNL002): 42.72%
- YFP fluorescence quenching using ABT-126 (1 uM abt): 52.64%
- YFP fluorescence quenching using TC-6987 (1 uM tc6987): 2.73
- YFP fluorescence quenching using Varenicline (1 uM var, first column): −13.385
- YFP fluorescence quenching using Varenicline (1 uM var, second column): −17.022
- YFP fluorescence quenching using TC-6987 (10 uM tc6987): 30.37
- YFP fluorescence quenching using CNL002 (30 uM CNL002): 51.43%
- YFP fluorescence quenching using AZD-0328 (30 uM azd0328): 21.78%
- YFP fluorescence quenching using Facinicline (30 uM fac): 37.62
- YFP fluorescence quenching using TC-6987 (500 uM tc6987): 33.07
- percent quench of YFP fluorescence, 30 nM TC-6683: −8.21%
- percent quench of YFP fluorescence, 300 nM TC-6683: −16.37%
- percent quench of YFP fluorescence, 3 uM TC-6683: −19.48%
- percent quench of YFP fluorescence, 30 uM TC-6683: −24.32%
- percent quench of YFP fluorescence, 100 uM TC-6683: −24.99%
- percent quench of YFP fluorescence, 10 uM ach: −21.71%
- percent quench of YFP fluorescence, 100 uM ach: 3.49%
- percent quench of YFP fluorescence, 1 mM ach: 63.34%
- percent quench of YFP fluorescence, 3 mM ach: 51.92%

B2: CODA1053: engineered chimeric LGIC receptor, R101M, L131A in SEQ ID NO: 33 (protein)
chain: B1 chain with R101M, L131A, C140Y
modifications: synthetic sequence of chimeric LGIC
- YFP fluorescence quenching using CNL001 (1 nM CNL001, first column): −8.554%
- YFP fluorescence quenching using CNL001 (1 nM CNL001, second column): −13.711%
- YFP fluorescence quenching using TC-5619/Bradanicline (1 nM brd): 0.008%
- YFP fluorescence quenching using TC-5619/Bradanicline (3 nM brd): 43.21%
- YFP fluorescence quenching using Varenicline (3 nM var, first column): 74.835
- YFP fluorescence quenching using Varenicline (3 nM var, second column): 76.119
- YFP fluorescence quenching using CNL001 (10 nM CNL001, first column): 39.631%
- YFP fluorescence quenching using CNL001 (10 nM CNL001, second column): 66.809%
- YFP fluorescence quenching using TC-5619/Bradanicline (10 nM brd): 77.672%
- YFP fluorescence quenching using TC-5619/Bradanicline (30 nM brd): 76.277%
- YFP fluorescence quenching using Varenicline (30 nM var, first column): 77.608
- YFP fluorescence quenching using Varenicline (30 nM var, second column): 79.015
- YFP fluorescence quenching using CNL001 (50 nM CNL001, first column): 82.122%
- YFP fluorescence quenching using CNL001 (50 nM CNL001, second column): 82.031%
- YFP fluorescence quenching using ABT-126 (50 nM abt): −27.01%
- YFP fluorescence quenching using CNL001 (100 nM CNL001, first column): 83.312%
- YFP fluorescence quenching using CNL001 (100 nM CNL001, second column): 83.986%
- YFP fluorescence quenching using ABT-126 (100 nM abt): −18.76%
- YFP fluorescence quenching using TC-5619/Bradanicline (100 nM brd): 76.856%
- YFP fluorescence quenching using ABT-126 (300 nM abt): −17.8%
- YFP fluorescence quenching using TC-5619/Bradanicline (300 nM brd): 75.32%
- YFP fluorescence quenching using Varenicline (300 nM var, first column): 80.71
- YFP fluorescence quenching using Varenicline (300 nM var, second column): 79.002
- YFP fluorescence quenching using Varenicline (500 nM var, first column): 78.709
- YFP fluorescence quenching using Varenicline (500 nM var, second column): 78.884
- YFP fluorescence quenching using CNL001 (1 uM CNL001, first column): 84.363%
- YFP fluorescence quenching using CNL001 (1 uM CNL001, second column): 83.877%
- YFP fluorescence quenching using ABT-126 (1 uM abt): −6.55%
- YFP fluorescence quenching using Varenicline (1 uM var, first column): 79.688
- YFP fluorescence quenching using Varenicline (1 uM var, second column): 80
- percent quench of YFP fluorescence, 10 uM ach: −3.98%
- percent quench of YFP fluorescence, 100 uM ach: −11%
- percent quench of YFP fluorescence, 300 uM ach: −7.92%
- percent quench of YFP fluorescence, 500 uM ach: 7.36%
- percent quench of YFP fluorescence, 1 mM ach: 57.28%
- percent quench of YFP fluorescence, 3 mM ach: 60.54%
- percent quench of YFP fluorescence, 10 mM ach: 79.46%

B3: CODA1047: engineered chimeric LGIC receptor, R101F, Y210V in SEQ ID NO: 33 (protein)
chain: B1 chain with R101F, C140Y, Y210V
modifications: synthetic sequence of chimeric LGIC
- YFP fluorescence quenching using CNL001 (1 nM CNL001, first column): −7.82%
- YFP fluorescence quenching using CNL001 (1 nM CNL001, second column): −8.382%
- YFP fluorescence quenching using TC-5619/Bradanicline (1 nM brd): −5.548%
- YFP fluorescence quenching using TC-5619/Bradanicline (3 nM brd): −9.432%
- YFP fluorescence quenching using Varenicline (3 nM var, first column): −3.035
- YFP fluorescence quenching using Varenicline (3 nM var, second column): −0.786
- YFP fluorescence quenching using CNL001 (10 nM CNL001, first column): −5.381%
- YFP fluorescence quenching using CNL001 (10 nM CNL001, second column): −1.431%
- YFP fluorescence quenching using TC-5619/Bradanicline (10 nM brd): −3.068%
- YFP fluorescence quenching using TC-5619/Bradanicline (30 nM brd): 2.368%
- YFP fluorescence quenching using Varenicline (30 nM var, first column): −5.181
- YFP fluorescence quenching using Varenicline (30 nM var, second column): 0.669
- YFP fluorescence quenching using CNL001 (50 nM CNL001, first column): −0.999%
- YFP fluorescence quenching using CNL001 (50 nM CNL001, second column): 3.909%
- YFP fluorescence quenching using ABT-126 (50 nM abt): −14.1%
- YFP fluorescence quenching using CNL001 (100 nM CNL001, first column): −0.823%
- YFP fluorescence quenching using CNL001 (100 nM CNL001, second column): −5.885%
- YFP fluorescence quenching using ABT-126 (100 nM abt): −11.72%
- YFP fluorescence quenching using TC-5619/Bradanicline (100 nM brd): 47.529%
- YFP fluorescence quenching using ABT-126 (300 nM abt): −12.98%
- YFP fluorescence quenching using TC-5619/Bradanicline (300 nM brd): 74.413%
- YFP fluorescence quenching using Varenicline (300 nM var, first column): −2.748
- YFP fluorescence quenching using Varenicline (300 nM var, second column): −6.708
- YFP fluorescence quenching using Varenicline (500 nM var, first column): −9.123
- YFP fluorescence quenching using Varenicline (500 nM var, second column): −9.869
- YFP fluorescence quenching using CNL001 (1 uM CNL001, first column): 1.638%
- YFP fluorescence quenching using CNL001 (1 uM CNL001, second column): 3.483%
- YFP fluorescence quenching using ABT-126 (1 uM abt): −15.09%
- YFP fluorescence quenching using Varenicline (1 uM var, first column): −6.702
- YFP fluorescence quenching using Varenicline (1 uM var, second column): −7.26
- percent quench of YFP fluorescence, 30 nM TC-6683: −24.195%
- percent quench of YFP fluorescence, 300 nM TC-6683: −24.234%
- percent quench of YFP fluorescence, 3 uM TC-6683: −21.291%
- percent quench of YFP fluorescence, 30 uM TC-6683: −16.363%
- percent quench of YFP fluorescence, 100 uM TC-6683: −24.9%
- percent quench of YFP fluorescence, 10 uM ach: −4.26%
- percent quench of YFP fluorescence, 100 uM ach: −13.05%
- percent quench of YFP fluorescence, 300 uM ach: −11.73%
- percent quench of YFP fluorescence, 500 uM ach: −10.75%
- percent quench of YFP fluorescence, 1 mM ach: −8.81%
- percent quench of YFP fluorescence, 3 mM ach: −6.77%
- percent quench of YFP fluorescence, 10 mM ach: −1.03%
